Assay results taken from PMC7334205.

What was measured:
Assay in all cases: bimolecular fluorescence complementation (BiFC), quantitative imaging of nuclear Venus fluorescence in cells
VN-Impα2 = VN-Impα2 (UniProt P52293); details: 18 h post-transfection, mean ± SEM, three independent experiments, parent: est. 1.0, read off a plot
VN-CIC = VN-CIC (UniProt Q96RK0); details: 18 h post-transfection; n = 258 (85Q) and 201 (mVS) nuclei; mean ± SEM, three independent experiments; parent: est. 1.0; read off a plot
VC-ataxin-1[85Q] = VC-ataxin-1[85Q] (UniProt P54253); details: 18 h post-transfection; n = 155 (wild-type Impα2) and 131 (mDE) nuclei; mean ± SEM, three independent experiments; parent: est. 1.0; read off a plot

Sequence of UniProt Q96RK0 (Q96RK0 whole entry): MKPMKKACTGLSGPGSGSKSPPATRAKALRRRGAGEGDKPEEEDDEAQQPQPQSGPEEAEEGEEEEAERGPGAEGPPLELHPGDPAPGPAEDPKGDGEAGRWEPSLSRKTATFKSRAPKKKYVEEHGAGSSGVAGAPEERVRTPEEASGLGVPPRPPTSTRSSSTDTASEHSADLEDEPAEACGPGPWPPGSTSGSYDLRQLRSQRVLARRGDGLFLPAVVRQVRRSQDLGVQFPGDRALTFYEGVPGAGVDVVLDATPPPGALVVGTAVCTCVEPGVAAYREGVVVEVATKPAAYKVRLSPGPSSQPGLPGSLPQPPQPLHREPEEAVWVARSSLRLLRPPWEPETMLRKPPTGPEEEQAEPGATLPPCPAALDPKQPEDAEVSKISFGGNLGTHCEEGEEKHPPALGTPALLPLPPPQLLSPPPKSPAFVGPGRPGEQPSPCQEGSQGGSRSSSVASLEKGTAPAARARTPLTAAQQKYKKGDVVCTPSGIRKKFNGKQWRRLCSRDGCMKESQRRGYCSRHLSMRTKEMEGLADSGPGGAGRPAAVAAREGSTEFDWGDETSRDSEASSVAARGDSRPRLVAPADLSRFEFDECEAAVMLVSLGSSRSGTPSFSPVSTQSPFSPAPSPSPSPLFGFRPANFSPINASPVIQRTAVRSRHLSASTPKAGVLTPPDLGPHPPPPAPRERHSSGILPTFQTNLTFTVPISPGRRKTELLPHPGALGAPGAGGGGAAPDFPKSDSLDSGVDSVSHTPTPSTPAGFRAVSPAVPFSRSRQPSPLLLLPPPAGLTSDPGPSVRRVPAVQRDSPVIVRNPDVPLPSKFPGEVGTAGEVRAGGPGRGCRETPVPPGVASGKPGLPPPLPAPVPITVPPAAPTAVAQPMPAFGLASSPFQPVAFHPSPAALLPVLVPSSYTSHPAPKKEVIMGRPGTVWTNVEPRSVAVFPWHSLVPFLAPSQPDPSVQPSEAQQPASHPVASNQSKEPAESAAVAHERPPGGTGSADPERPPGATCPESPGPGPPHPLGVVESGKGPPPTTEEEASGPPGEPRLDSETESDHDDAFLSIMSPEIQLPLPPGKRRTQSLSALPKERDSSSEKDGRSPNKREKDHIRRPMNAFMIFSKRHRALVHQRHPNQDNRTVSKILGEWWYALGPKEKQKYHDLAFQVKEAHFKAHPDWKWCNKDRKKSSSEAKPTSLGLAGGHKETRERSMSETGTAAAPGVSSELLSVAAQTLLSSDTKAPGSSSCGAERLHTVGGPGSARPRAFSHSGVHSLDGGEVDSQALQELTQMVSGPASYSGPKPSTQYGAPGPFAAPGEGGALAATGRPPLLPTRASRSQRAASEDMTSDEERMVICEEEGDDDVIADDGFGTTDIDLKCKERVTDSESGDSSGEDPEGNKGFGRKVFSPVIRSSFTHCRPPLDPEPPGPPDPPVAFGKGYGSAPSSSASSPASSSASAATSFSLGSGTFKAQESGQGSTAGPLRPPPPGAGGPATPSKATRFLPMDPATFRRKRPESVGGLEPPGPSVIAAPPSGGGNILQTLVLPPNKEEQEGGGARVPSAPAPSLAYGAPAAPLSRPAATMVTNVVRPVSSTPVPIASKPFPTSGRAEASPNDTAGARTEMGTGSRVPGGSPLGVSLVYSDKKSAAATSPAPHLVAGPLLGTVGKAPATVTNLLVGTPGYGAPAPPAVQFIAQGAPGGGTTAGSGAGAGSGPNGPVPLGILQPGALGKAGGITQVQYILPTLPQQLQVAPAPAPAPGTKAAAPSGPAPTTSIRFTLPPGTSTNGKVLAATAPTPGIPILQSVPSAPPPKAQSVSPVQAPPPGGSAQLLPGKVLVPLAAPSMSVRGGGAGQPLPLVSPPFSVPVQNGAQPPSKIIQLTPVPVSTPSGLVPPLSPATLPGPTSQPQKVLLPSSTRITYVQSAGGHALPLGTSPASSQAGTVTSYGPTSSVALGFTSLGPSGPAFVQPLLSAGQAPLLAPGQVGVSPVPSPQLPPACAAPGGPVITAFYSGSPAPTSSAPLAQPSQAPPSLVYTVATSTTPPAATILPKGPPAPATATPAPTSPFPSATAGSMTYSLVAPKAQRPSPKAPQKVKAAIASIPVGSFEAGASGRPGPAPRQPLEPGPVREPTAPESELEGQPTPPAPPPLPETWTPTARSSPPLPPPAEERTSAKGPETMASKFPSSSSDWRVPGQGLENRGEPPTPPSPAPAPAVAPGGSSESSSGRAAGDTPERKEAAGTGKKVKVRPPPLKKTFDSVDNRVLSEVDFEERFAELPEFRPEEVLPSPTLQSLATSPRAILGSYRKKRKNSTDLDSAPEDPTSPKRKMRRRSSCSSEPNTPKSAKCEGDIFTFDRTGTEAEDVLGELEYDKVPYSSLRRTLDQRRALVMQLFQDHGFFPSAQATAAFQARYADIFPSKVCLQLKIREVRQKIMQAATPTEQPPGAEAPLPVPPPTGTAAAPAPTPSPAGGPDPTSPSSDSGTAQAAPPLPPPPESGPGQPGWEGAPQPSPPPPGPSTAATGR

VC-ataxin-1[85Q] (from UniProt P54253) K772T
ratio to parent (VN-Impα2; n = 155 (85Q) and 172 (K772T) nuclei): 0.55

VC-ataxin-1[85Q] (from UniProt P54253) V591A; S602D
ratio to parent (VN-CIC): 0.47 | ratio to parent (VN-Impα2; n = 101 and 101 nuclei): 0.72

VN-Impα2 (from UniProt P52293) D192K; E396R
ratio to parent (VC-ataxin-1[85Q]): 0.75
